Test results from the supplement of paper PMC12455559.
± gives the standard deviation of the averaged measurements.

Legend:
[1] = purified protein yield per well (BCA); higher = higher soluble expression
Procedure, shortened: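 Values under 25 ug (0.1 mg/mL) are below the detection threshold. Purified protein yield per well was quantified with the Pierce Rapid Gold BCA kit after candidate enzymes, expressed in E. coli C41(DE3), were captured on Ni-charged magnetic beads and released by SUMO protease on an OT-2 robot. Cultures were 2 mL autoinduction with 100 µg/mL kanamycin, run 2 h at 37 °C and then 40 h at 18 °C.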

[2] = PET hydrolysis, aromatic products released after 48 h (umol product/mg enzyme); higher = more PET depolymerization activity
Procedure, shortened: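 The measure of PET hydrolysis activity is aromatic product released into the supernatant, given per mg enzyme. Nickel-purified, SUMO-cleaved enzyme without tag was added at 5 μg (50 μL) to 3.5 mg amorphous PET film or crystalline PET powder in 450 μL of citrate, phosphate or glycine buffer spanning pH 4.5 to 8.5. After 48 h at 40 or 60 °C in sealed plates without shaking, absorbance at 260 and 280 nm was taken against buffer blanks.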

[3] = melting temperature (DSF); higher = more thermostable
Procedure, shortened: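 Enzymes made in E. coli C41(DE3) were nickel-bead purified and cut free with SUMO protease before testing. Differential scanning fluorimetry gave each melting temperature. For this, 5 μL 5X Sypro Orange was added to 45 μL enzyme (0 to 0.3 mg/mL) in sealed PCR plates, and a Bio-Rad CFX96 read fluorescence from 25 °C over 250 cycles of 0.3 °C each, ramping at 0.3 °C/s.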

[4] = substrate: cryPow, 40 °C, pH 4.5
[5] = substrate: cryPow, 40 °C, pH 5.5
[6] = substrate: cryPow, 40 °C, pH 6.5
[7] = substrate: cryPow, 40 °C, pH 7.5
[8] = substrate: cryPow, 60 °C, pH 4.5
[9] = substrate: cryPow, 60 °C, pH 5.5
[10] = substrate: cryPow, 60 °C, pH 6.5
[11] = substrate: cryPow, 60 °C, pH 7.5
[12] = substrate: aFilm, 40 °C, pH 4.5
[13] = substrate: aFilm, 40 °C, pH 5.5
[14] = substrate: aFilm, 40 °C, pH 6.5
[15] = substrate: aFilm, 40 °C, pH 7.5
[16] = substrate: aFilm, 60 °C, pH 4.5
[17] = substrate: aFilm, 60 °C, pH 5.5
[18] = substrate: aFilm, 60 °C, pH 6.5
[19] = substrate: aFilm, 60 °C, pH 7.5

Row | Sequence | purified protein yield per well [1] | PET hydrolysis [2, 4] | PET hydrolysis [2, 5] | PET hydrolysis [2, 6] | PET hydrolysis [2, 7] | PET hydrolysis [2, 8] | PET hydrolysis [2, 9] | PET hydrolysis [2, 10] | PET hydrolysis [2, 11] | melting temperature [3] | PET hydrolysis [2, 12] | PET hydrolysis [2, 13] | PET hydrolysis [2, 14] | PET hydrolysis [2, 15] | PET hydrolysis [2, 16] | PET hydrolysis [2, 17] | PET hydrolysis [2, 18] | PET hydrolysis [2, 19]
1 | ADNPYQRGPDPTRTSVTAVNGPFANTSVSVPTGYGFNGGRIYYPTDTSQGTFGAIAISPGYTALFSAELAWMGPWLASHGFVVIGIETNSRNDFDTARGTQLLAALDYLTQQSPVRDRVDPNRLAVAGHSMGGGGALSAATRRSSLKAVVGIAPYSPSSNLANDRVPTMIFAGQADTVVTPSYATNLYNSLPTTTESVYLEVAGADHGFMVGRSNPVMVRTMLPFVKMFVDNDTRYSQFLCPLADSSGVVTYRSTCPLLPSTPTTPTATPTNTPTPTASPTVPPGSASQIVGTQSGRCIDVPNASHTNGTRVALYDCNRQSNQSWTYTSTKQLQVYGTMCLDAAGSGNGAAVQIYGCHSQTNQQWNVNSNGTISSVQSGRCLDVWSTANGAQVQLYDCHGQTNQQFRLVSLAR [ESM137] | 140 µg | 10 | 18 | 17 | 8 | < 3 | < 3 | < 3 | < 3 | 62.2 C | – | – | – | – | – | – | – | –
2 | ADNPYQRGPDPTRTSVTAVNGPFANTSVSVPTGYGFNGGRIYYPTDTSQGTFGAIAISPGYTALFSAELAWMGPWLASHGFVVIGIETNSRNDFDTARGTQLLAALDYLTQQSPVRDRVDPNRLAVSGHSMGGGGALSAAMRRSSLKAVVGITPYSPSSNLANDRVPTMIISGQADTVVTPSYALGLYNSIPTTTKSVYLEVAGGDHGFMVGRSNPVMVRTMLPFVKMFIDNDARYSQFLCPLLDNSGVVTYRSTCPLLPTTPPTGTPTPTPTNSPTTPPPGSASGIVGAQSGRCIDVPNASRSNGTRVQLYDCNRQSNQSWTYTANKQLRVYGDMCLDAAGSGNGAAVQIYSCHNQTNQQWNVNSNGTITGVQSGRCLDVWSTSNGAQVQLYDCHGQANQQFRLAPLA [ESM059] | 311 µg | 10 | 21 ± 1.4 | 26 | 21.5 ± 2.1 | < 3 | 5 | 4 | 2 ± 2.8 | 65.8 C | < 3 | 2 ± 2.8 | 1.5 ± 2.1 | < 3 | < 3 | < 3 | < 3 | < 3
3 | ADNPYQRGPDPTRTSVTAVNGPFANTSVSVPTGYGFNGGRIYYPTDTSQGTFGAIAISPGYTALFSAELAWMGPWLASHGFVVIGIETNSRNDFDTARGTQLLAALDYLTQQSPVRDRVDPTRLAVAGHSMGGGGALSAAIRRSSLKAVVGIAPYSPSSNLANDRVPTMIFSGQADTVVTPSYATGLYNSLPSTTESVYLEVAGADHGFMVGRSNPVMVRTMLPFVKMFVDNDARYSQFLCPLLDNSGVVTYRSTCPLLPSTPTTPTPTPTDPTTPTPTPTVPPGSASQIVGTQSGRCIDVPNASRTNGTRVQLYDCNRQTNQAWTYTSGKQLQVYGNMCLDAAGTGNGAAVQIYSCHSQTNQQWNVNSNGTISNVQSGRCLDVWSTANGAQIQLYDCHSQTNQQFRVTPLA [ESM062] | 135 µg | 11 | 27 | 33 | 24 | < 3 | 4 | 4 | < 3 | 62.5 C | – | – | – | – | – | – | – | –
4 | ADNPYQRGPDPTRTSVTAVNGPFANTSVSVPTGYGFNGGRIYYPTDTSQGTFGAIAISPGYTALFSAELAWMGPWLASHGFVVIGIETNSRNDFDTARGTQLLAALDYLTQQSPVRDRVDPTRLAVAGHSMGGGGALSAATRRSSLKAAVGIAPYSPSSNLANDRVPTMVFAGQADTVVTPSYATGLYNSLPATTESAYLEVAGADHGFMVGRSNPVLVRTMLPFVKMFVDNDARYSQFLCPLLDSSGVVTYRSTCPLLPSTPTTPTATPTNTPTPTASPTVPPTSASQIVGTQSGRCVDVPNASRTNGTRVTLYDCNRQINQTWTYTANKQLQVYGTMCLDAAGTGNGAAVQIYNCHGQTNQQWNVNSNGTISSVQSGRCLDVWSTSNGAQIQLYDCHGQPNQQFRLVSLA [ESM135] | 109 µg | 6 | 15 | 14 | 5 | < 3 | < 3 | < 3 | < 3 | 61.3 C | – | – | – | – | – | – | – | –
5 | ADNPYQRGPDPTTASVAATRGTFATAEQTVGGGNGFAAGKIYYPIDTSQGTFGAIAIVPGYTATWAAEGAWMGPWLASFGFVVIGIDTNSRNDYDTARGTQLLAALDYLTQRSPVSGRVDAKRLSVMGHSMGGGGAVYAAIHRPSLWAAVGLAPFSPSQNLTTDKVPALLLAGQNDGTVSPSSVQSLYNGIPAGVEKGYLELAGAGHGFPTSSNSVMMRRVIPWLKIFVDHDSRYSKFLCPSLADSTGISGYRSTCPLDVPGGGDPGPGDQAVSLVGAGSGKCIDVPNQSQANGTALVVWTCNGGTNQRWTPTSAGELRVYNGTKCMDAGSGQPGTAVTINACGGGNSQKWTVNATGTITNAQAGACLDVSGGGTADNTPVIVWNCTGAANQVWTRQM [ESM103] | 48.2 µg | < 3 | < 3 | < 3 | < 3 | – | – | – | – | 51.7 C | – | – | – | – | – | – | – | –
6 | ADNPYQRGPDPTVASVAATNGPFATAQLNVPSGNGFNGGTIYYPTDTSLGTWGAVAIVPGYTARFANEEAWMGPRLASFGFVVIGVETNSTTDWDTARGTQLLAALDYLTQKSSVRDRVDASRLAVIGHSMGGGGVVYAASQRPSLKAAIGLAPYAPSGNLSNVKVPMLIQGGQNDTVVTPSYLDGLYPTLPSSTPGAYVQYSGADHLFWTKANNIELRTQIPWLKIFLDNDTRYTQFMCPTLKDTASVAKYSAKCSLIPSAGSTTAPTTQPATSAPATTSPTTQPPSQPG [TEP083] | 356 µg | < 3 | 3 ± 4.2 | < 3 | < 3 | < 3 | < 3 | < 3 | < 3 | 64.3 C | < 3 | < 3 | < 3 | < 3 | < 3 | < 3 | < 3 | < 3
7 | ADNPYQRGPDPTVASVAATRGTFATAQLTVPAGNGFGGGYIYYPTDTSRGTYGAVAIVPGYSALFANEEAWMGPWLASFGFVVIGVETITRNDGADARATQLLAALDYLTQRSQVRDRVDATRLAVMGHSAGGAGTILASERRPSLKAAVGLAPGTPGSLSLATNHVPMMIIGGQTDPTVTPSYLNNLYATMPAATPSDFVQIAGADHLFFTRANNTEMKVLIPWLKIFLDNDTRYTQFLCPSLADPQGISLYRSKCPYLPPGTTSPSPSASSTLSPSPSVSPTASPSPSVSLTPSPSNPATGCAATYRTVNSWPGGFQGEVTVSAGGAPVDGWTVGWTLGSGQSITQLWNGTLTTSGSTVTVRNPAYGGSIPAGGSVVFGFLGTGTPSVPALTCTSP [ESM031] | 66.9 µg | < 3 | < 3 | < 3 | < 3 | < 3 | < 3 | < 3 | < 3 | 47.8 C | – | – | – | – | – | – | – | –
8 | ADNPYQRGPEPTTSSVAATRGTFATAEVSVSKGNGFGGGKIYYPTDTSKGTFGAIAVVPGYTATWAAEGAWMGPWLASFGFVVIGIDTNSRTDYDTARGTQLLAALDYLTQKSSVRSRVDVKRLSVMGHSMGGGGAMYAALHRPSLWAAVGNAPFSPSQNLKSDRVPTLLLAGQKDTTVTPSSVVGLYNGIPAATEKGYLELTGAAHNFPTRSNSVMMRKVVPWLKIFVDHDTRYGQFLCPSLKDTTGITSYRSTCPLTTAGQ [ESM078] | 68.8 µg | < 3 | < 3 | < 3 | < 3 | < 3 | < 3 | < 3 | < 3 | 52 C | – | – | – | – | – | – | – | –
9 | ADNPYQRGPNPTAASIAATTGPFAIASVSVARGNGFGGGVIYYPTDTSQGTFGAIAISPGLNGTWPGIAWLGPRLASQGFVVFGIETNNLNDSPTSRGTQLLAALDYLTQRSSVRTRVDATRLAVAGHSMGGGGALDAALRRPSLQAAIGNAPYLPSGNLSTDRVPTLIYAMQNDTLVPPSRLTTMYNTIPATTERGYIQITGAGHNYIGQPSTNLARTMIPWFKIFIDNDTRFSQFLCPLSNMSGISQYRNSCPLI [ESM159] | 371 µg | < 3 | 15.5 ± 6.4 | 46.5 ± 3.5 | 74.5 ± 7.8 | < 3 | < 3 | 6.5 ± 2.1 | 13 ± 1.4 | 57.4 C | < 3 | < 3 | < 3 | 2 ± 2.8 | < 3 | < 3 | < 3 | < 3
10 | ADNPYQRGPNPTLASVAANRGTFATAQTSVPAGNGFGGGVIYYPTDTSQTFGGVAIVPGYSALFANEEAWMGPWLASFGFVVIGIETNSRTDSADARGTQLLAALDYLTQRSSVRDRVDPNRLSVVGHSAGGAGVLSAILRRPTLKAGIGLAPGSPVGDYGLSNDRVPTMFISGQRDTTVTQSYLNGLYTTIPASTPSAWVEITGVDHLFATRANTTEMRVLIPWLKIWVDNDTRYTQFLCPLADSSNISMYRNKCPYVPPGGSPSPSASPSSSPSQSPSQSPSQSPSQSPSQSPSTSPSPPPPGACVAEYQPQNSWPGGYQALVTVKAGSSAINGWTVRWTLGSGQTISQAWNGTLSTSGSAVTVKNASYNGSLPAGGSTSFGFLATGTPSTPTLTCTSP [ESM013] | 431 µg | < 3 | < 3 | < 3 | < 3 | < 3 | < 3 | < 3 | < 3 | 59.8 C | < 3 | < 3 | < 3 | < 3 | < 3 | < 3 | < 3 | < 3
11 | ADNPYQRGPNPTLASVAATRGTFATAQINVPGGNGFGSGVIYYPTDTSQGTFGGVAIVPGYSALFANEEAWMGPWLASFGFVVIGIETNSRTDSADARGTQLLAALDYLTQRSSVRDRVDPSRLSVVGHSAGGAGVLSAVIRRPSLKAAVGLAPGSPVGNYELSADKVPLMFISGQKDTTVTQSYLNGLYTTIPASTPSAWVEITGVDHLFATRANTTEMRVLIPWLKIFLDNDTRYTQFLCPLADSSGISMYRNKCPYVPPGGSSPSPSATPSPSVSPSASPSASPSASPSVSPSASPSVSPSASPSASPSSQPSGACTASYKTVNSWPGGYQGEVTVTAGSAAINGWTVRWTLGSGQSVSQVWNGTLTTSGSTVTVKNVSYNGSLPAAGSATFGFLANGTASTPAVTCTSP [ESM004] | 375 µg | < 3 | < 3 | < 3 | < 3 | < 3 | < 3 | < 3 | < 3 | 55.9 C | < 3 | < 3 | < 3 | < 3 | < 3 | < 3 | < 3 | < 3
